{"source": "paper PMC8139424", "biological_target": "S2 fragment of the S protein (SARS-CoV-2)", "experiment": "SEC"}
{"substance": "S2 fragment of the S protein (domain or fragment)", "values": [{"measurement": "stoichiometry N", "result": 3}]}
